In patent US20100215655A1 (CHENGDU KANGHONG BIOTECHNOLOGIES, published 2010):

Tests used:
[1] = molecular target: T1, recombinant VEGF (vascular endothelial cell growth factor) (UniProt P15692-4 27-191, limits assumed); test: ELISA, VEGF coated on plate, anti-human Ig-HRP detection
T1 construct: also called recombinant VEGF proteins (Chemicom)
Description: Affinities of the chimeric proteins to VEGF were determined by the VEGF binding assay in the present invention. Firstly, recombinant VEGF proteins (Chemicom) were coated in a 96-well ELISA plate, and non-specific protein binding sites of the plate were then blocked using 5% milk solution. Secondly, different concentrations of various chimeric proteins were added into each well, and incubated for 2 hours at 37° C. After washing, rabbit anti-human Ig-HRP (Sigma) was added into each well, and finally colorimetric enzyme substrates were added to the plate. The absorption OD readings were recorded with the use of an ELISA plate reader. A higher OD value indicated a stronger binding affinity of the chimeric proteins to VEGF.

[2] = molecular target: T1, recombinant VEGF (vascular endothelial …); test: cell-based or functional assay

T1 sequence (P15692 other isoform, or with tags, fused parts or gaps limits assumed): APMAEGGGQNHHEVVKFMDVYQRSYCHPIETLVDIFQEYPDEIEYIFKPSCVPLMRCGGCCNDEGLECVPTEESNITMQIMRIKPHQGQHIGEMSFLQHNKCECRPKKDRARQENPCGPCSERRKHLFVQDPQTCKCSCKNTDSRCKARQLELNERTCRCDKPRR

| concentration at which binding was detectable [1] [µg/mL] | IC50 of inhibition of VEGF-induced HUVEC cell growth [2] [ng/mL] | Binder |
| --- | --- | --- |
| 1 | 5 to 8 | FP4′ (FLTd2-KDRd3-FLTd4-Fc) (Fc fusion, not shown: a dimerising Fc or GST, Expressed in 293 cells) PFVEMYSEIPEIIHMTEGRELVIPCRVTSPNITVTLKKFPLDTLIPDGKRIIWDSRKGFIISNATYKEIGLLTCEATVNGHLYKTNYLTHRQTVVLSPSHGIELSVGEKLVLNCTARTELNVGIDFNWEYPSSKHQHKKLVNRDLKTQSGSEMKKFLSTLTIDGVTRSDQGLYTCAASSGLMTKKNSTFVRVHEKFITVKHRKQQVLETVAGKRSYRLSMKVKAFPSPEVVWLKDGLPATEKSARYLTRGYSLIIKDVTEEDAGNYTILLSIKQSNVFKNLTATLIVNVKP |
|  | ~12 | FP1′ (FLTd2-KDRd3-Fc), chimeric protein of the prior art (Fc fusion, not shown: a dimerising Fc or GST) PFVEMYSEIPEIIHMTEGRELVIPCRVTSPNITVTLKKFPLDTLIPDGKRIIWDSRKGFIISNATYKEIGLLTCEATVNGHLYKTNYLTHRQTVVLSPSHGIELSVGEKLVLNCTARTELNVGIDFNWEYPSSKHQHKKLVNRDLKTQSGSEMKKFLSTLTIDGVTRSDQGLYTCAASSGLMTKKNSTFVRVHEK |

Continued, binder first:

| Binder | concentration at which binding was detectable [1] [µg/mL] | IC50 of inhibition of VEGF-induced HUVEC cell growth [2] [ng/mL] |
| --- | --- | --- |
| FP5′ (FLTd2-KDRd3,4,5-Fc) (Fc fusion, human, not shown: a dimerising Fc or GST, domain: 5th Ig-like domain of KDR; Expressed in 293 cells) PFVEMYSEIPEIIHMTEGRELVIPCRVTSPNITVTLKKFPLDTLIPDGKRIIWDSRKGFIISNATYKEIGLLTCEATVNGHLYKTNYLTHRQTVVLSPSHGIELSVGEKLVLNCTARTELNVGIDFNWEYPSSKHQHKKLVNRDLKTQSGSEMKKFLSTLTIDGVTRSDQGLYTCAASSGLMTKKNSTFVRVHEKFVAFGSGMESLVEATVGERVRIPAKYLGYPPPEIKWYKNGIPLESNHTIKAGHVLTIMEVSERDTGNYTVILTNPIKSEKQSHVVSLVVYVPPQIGEKSLISPVDSYQYGTTQTLTCTVYAIPPPHHIHWYWQLEEECANEPSQAVSVTNPYPCEEWRSVEDFQGGNKIEVNKNQFALIEGKNKTVSTLVIQAANVSALYKCEAVNKVGRGERVISFHVT | 1 | 5 to 8 |
| FP2′ (KDRd1-FLTd2-KDRd3-Fc) (Fc fusion, not shown: a dimerising Fc or GST, Expressed in 293 cells) PRLSIQKDILTIKANTTLQITCRGQRDLDWLWPNNQSGSEQRVEVTECSDGLFCKTLTIPKVIGNDTGAYKCFYRETDLASVIYVYPFVEMYSEIPEIIHMTEGRELVIPCRVTSPNITVTLKKFPLDTLIPDGKRIIWDSRKGFIISNATYKEIGLLTCEATVNGHLYKTNYLTHRQTVVLSPSHGIELSVGEKLVLNCTARTELNVGIDFNWEYPSSKHQHKKLVNRDLKTQSGSEMKKFLSTLTIDGVTRSDQGLYTCAASSGLMTKKNSTFVRVHEK | 1 | 5 to 8 |
| FP6′ (FLTd2-KDRd3-FLTd4,5-Fc) (Fc fusion, human, not shown: a dimerising Fc or GST, domain: 5th Ig-like domain of FLT-1; Expressed in 293 cells; also called PF6′) PFVEMYSEIPEIIHMTEGRELVIPCRVTSPNITVTLKKFPLDTLIPDGKRIIWDSRKGFIISNATYKEIGLLTCEATVNGHLYKTNYLTHRQTVVLSPSHGIELSVGEKLVLNCTARTELNVGIDFNWEYPSSKHQHKKLVNRDLKTQSGSEMKKFLSTLTIDGVTRSDQGLYTCAASSGLMTKKNSTFVRVHEKFITVKHRKQQVLETVAGKRSYRLSMKVKAFPSPEVVWLKDGLPATEKSARYLTRGYSLIIKDVTEEDAGNYTILLSIKQSNVFKNLTATLIVNVKPQIYEKAVSSFPDPALYPLGSRQILTCTAYGIPQPTIKWFWHPCNHNHSEARCDFCSNNEESFILDADSNMGNRIESITQRMAIIEGKNKMASTLVVADSRISGIYICIASNKVGTVGRNISFYIT | 1 | 5 to 8 |
